These results are taken from the supplement of paper PMC5998384.

For data set [1], the system named is HeLa Kyoto. In words: solubility in G1/S (NP-40 vs SDS abundance) (log2 ratio); higher = more soluble. The following applies: cell cycle stage: G1/S.
The subject of data set [2] is HeLa Kyoto. In words: melting temperature (median over replicates), in situ; higher = more thermally stable.
The test system of data set [3] is HeLa Kyoto. In words: solubility change mitosis vs G1/S (difference of NP-40 vs SDS log2 ratios) (log2 ratio difference); higher = more soluble in mitosis.
For data set [4], the system named is HeLa Kyoto. In words: thermal stability score vs G1/S (z-score of summed log2 fold changes over temperatures); higher = more thermally stable than in G1/S.
Setting [5] is: cell cycle stage: early G1 (4.5 h after nocodazole release).
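Throughout, for melting temperature (median over replicates), in situ: HeLa Kyoto cells synchronized by double thymidine or nocodazole block, proteins quantified by TMT10plex mass spectrometry, three independent biological replicates.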
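Throughout, for solubility change mitosis vs G1/S (difference of NP-40 vs SDS log2 ratios): synchronized HeLa Kyoto cells (double thymidine block for G1/S, nocodazole release for mitosis), protein amounts in NP-40 versus SDS lysates quantified by mass spectrometry, three biological replicates.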
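Throughout, for solubility in G1/S (NP-40 vs SDS abundance): HeLa Kyoto cells arrested at G1/S by double thymidine block, proteins quantified by TMT10plex mass spectrometry in mild NP-40 versus SDS extracts, three biological replicates.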
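Throughout, for thermal stability score vs G1/S (z-score of summed log2 fold changes over temperatures): synchronized HeLa Kyoto cells, proteins quantified by TMT10plex mass spectrometry, three biological replicates, mitosis taken 0.5 h after nocodazole release, G1/S directly after double thymidine block.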

LARS, sequence (chain, as listed by the source): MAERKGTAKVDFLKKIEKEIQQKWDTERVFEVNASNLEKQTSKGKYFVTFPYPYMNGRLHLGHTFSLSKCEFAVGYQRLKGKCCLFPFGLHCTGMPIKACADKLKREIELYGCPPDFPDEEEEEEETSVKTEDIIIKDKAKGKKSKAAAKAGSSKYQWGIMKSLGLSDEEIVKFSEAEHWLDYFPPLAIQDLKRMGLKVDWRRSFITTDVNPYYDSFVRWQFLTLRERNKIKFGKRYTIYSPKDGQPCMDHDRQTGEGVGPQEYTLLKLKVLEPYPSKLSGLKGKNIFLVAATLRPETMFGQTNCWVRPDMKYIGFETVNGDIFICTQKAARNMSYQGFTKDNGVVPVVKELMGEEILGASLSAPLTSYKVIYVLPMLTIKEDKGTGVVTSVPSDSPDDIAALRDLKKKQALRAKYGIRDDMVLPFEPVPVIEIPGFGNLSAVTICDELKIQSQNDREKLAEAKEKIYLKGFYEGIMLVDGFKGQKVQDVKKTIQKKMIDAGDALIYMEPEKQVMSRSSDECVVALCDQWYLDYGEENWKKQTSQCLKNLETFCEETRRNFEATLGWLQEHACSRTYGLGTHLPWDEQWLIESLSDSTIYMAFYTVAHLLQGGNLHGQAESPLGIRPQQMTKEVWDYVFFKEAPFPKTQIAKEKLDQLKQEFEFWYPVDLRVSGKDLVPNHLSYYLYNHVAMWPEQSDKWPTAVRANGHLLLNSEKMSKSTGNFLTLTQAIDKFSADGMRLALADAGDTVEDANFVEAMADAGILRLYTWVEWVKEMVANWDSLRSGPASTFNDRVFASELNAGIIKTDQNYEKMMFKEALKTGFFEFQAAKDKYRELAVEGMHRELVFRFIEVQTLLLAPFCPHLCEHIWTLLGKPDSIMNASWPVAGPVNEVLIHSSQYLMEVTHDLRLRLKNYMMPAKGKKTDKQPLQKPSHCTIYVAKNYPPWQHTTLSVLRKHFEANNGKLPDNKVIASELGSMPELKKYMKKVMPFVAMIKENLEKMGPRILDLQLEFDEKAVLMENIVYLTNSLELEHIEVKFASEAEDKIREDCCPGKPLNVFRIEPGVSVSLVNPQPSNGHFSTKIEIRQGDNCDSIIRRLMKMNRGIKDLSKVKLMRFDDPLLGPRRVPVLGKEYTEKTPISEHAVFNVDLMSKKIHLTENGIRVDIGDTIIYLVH
LSM3, sequence (chain, as listed by the source): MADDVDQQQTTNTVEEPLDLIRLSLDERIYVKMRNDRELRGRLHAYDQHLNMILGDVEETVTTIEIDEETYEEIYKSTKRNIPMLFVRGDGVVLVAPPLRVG

For the substance LAMA5, in data set [1], the “solubility in G1/S (log2)” value is -0.331. The results for the melting temperature in data set [2] (cell cycle stage: G1/S) and in data set [2] (cell cycle stage: mitosis) were 53.3 °C and 54.1 °C, respectively. In data set [3], the “solubility change mitosis (log2)” value was found to be 0.0689. Moreover, the results for the thermal stability score in data set [4] (setting [5]) and in data set [4] (cell cycle stage: mitosis) were 1.64 and 3.23, respectively.
In the case of LARS, the “solubility in G1/S (log2)” value in data set [1] is -0.189. In addition, the results for the melting temperature in data set [2] (cell cycle stage: G1/S) and in data set [2] (cell cycle stage: mitosis) were 49 °C and 49.1 °C, respectively. Besides, the “solubility change mitosis (log2)” value in data set [3] was -0.14. Further, the thermal stability score in data set [4] (setting [5]) is -0.182; in data set [4] (cell cycle stage: mitosis) it was 2.83.
Regarding LRBA, in data set [1], the “solubility in G1/S (log2)” value was -0.115. The melting temperature in data set [2] (cell cycle stage: G1/S) and in data set [2] (cell cycle stage: mitosis) was 51.2 °C each time. The “solubility change mitosis (log2)” value in data set [3] is -0.148. Further, the thermal stability score in data set [4] (setting [5]) was -0.555; in data set [4] (cell cycle stage: mitosis), -0.768.
On to LSM3, for which the “solubility in G1/S (log2)” value in data set [1] is 0.0123. Besides, the results for the melting temperature in data set [2] (cell cycle stage: G1/S) and in data set [2] (cell cycle stage: mitosis) were 55.4 °C and 53.4 °C, respectively. Also, the “solubility change mitosis (log2)” value in data set [3] is 0.115. For the same substance, the values for the thermal stability score in data set [4] (setting [5]) and in data set [4] (cell cycle stage: mitosis) were -1.12 and -1.32, respectively.
As to LSM14A, in data set [1], the “solubility in G1/S (log2)” value stood at 0.131. Moreover, the melting temperature in data set [2] (cell cycle stage: G1/S) was found to be 51.8 °C; in data set [2] (cell cycle stage: mitosis), 51.6 °C. Besides, in data set [3], the “solubility change mitosis (log2)” value is -0.186. Besides, the thermal stability score was -0.955 in data set [4] (setting [5]) and -1.78 in data set [4] (cell cycle stage: mitosis).
Regarding “MAAAAAEQQQFYLLLGNLLSPDNVVRKQAEETYENIPGQSKITFLLQAIRNTTAAEEARQMAAVLLRRLLSSAFDEVYPALPSDVQTAIKSELLMIIQMETQSSMRKKVCDIAAELARNLIDEDGNNQWPEGLKFLFDSVSSQNVGLREAALHIFWNFPGIFGNQQQHYLDVIKRMLVQCMQDQEHPSIRTLSARATAAFILANEHNVALFKHFADLLPGFLQAVNDSCYQNDDSVLKSLVEIADTVPKYLRPHLEATLQLSLKLCGDTSLNNMQRQLALEVIVTLSETAAAMLRKHTNIVAQTIPQMLAMMVDLEEDEDWANADELEDDDFDSNAVAGESALDRMACGLGGKLVLPMIKEHIMQMLQNPDWKYRHAGLMALSAIGEGCHQQMEGILNEIVNFVLLFLQDPHPRVRYAACNAVGQMATDFAPGFQKKFHEKVIAALLQTMEDQGNQRVQAHAAAALINFTEDCPKSLLIPYLDNLVKHLHSIMVLKLQELIQKGTKLVLEQVVTSIASVADTAEEKFVPYYDLFMPSLKHIVENAVQKELRLLRGKTIECISLIGLAVGKEKFMQDASDVMQLLLKTQTDFNDMEDDDPQISYMISAWARMCKILGKEFQQYLPVVMGPLMKTASIKPEVALLDTQDMENMSDDDGWEFVNLGDQQSFGIKTAGLEEKSTACQMLVCYAKELKEGFVEYTEQVVKLMVPLLKFYFHDGVRVAAAESMPLLLECARVRGPEYLTQMWHFMCDALIKAIGTEPDSDVLSEIMHSFAKCIEVMGDGCLNNEHFEELGGILKAKLEEHFKNQELRQVKRQDEDYDEQVEESLQDEDDNDVYILTKVSDILHSIFSSYKEKVLPWFEQLLPLIVNLICPHRPWPDRQWGLCIFDDVIEHCSPASFKYAEYFLRPMLQYVCDNSPEVRQAAAYGLGVMAQYGGDNYRPFCTEALPLLVRVIQSADSKTKENVNATENCISAVGKIMKFKPDCVNVEEVLPHWLSWLPLHEDKEEAVQTFNYLCDLIESNHPIVLGPNNTNLPKIFSIIAEGEMHEAIKHEDPCAKRLANVVRQVQTSGGLWTECIAQLSPEQQAAIQELLNSA [IPO5]”, the “solubility in G1/S (log2)” value in data set [1] was found to be 0.177. In addition, the values for the melting temperature in data set [2] (cell cycle stage: G1/S) and in data set [2] (cell cycle stage: mitosis) were 54 °C and 53.5 °C, respectively. In addition, the “solubility change mitosis (log2)” value in data set [3] is -0.0935. For the same substance, the thermal stability score was found to be 1.46 in data set [4] (setting [5]) and 1.41 in data set [4] (cell cycle stage: mitosis).
For “MAAAAASLRGVVLGPRGAGLPGARARGLLCSARPGQLPLRTPQAVALSSKSGLSRGRKVMLSALGMLAAGGAGLAMALHSAVSASDLELHPPSYPWSHRGLLSSLDHTSIRRGFQVYKQVCASCHSMDFVAYRHLVGVCYTEDEAKELAAEVEVQDGPNEDGEMFMRPGKLFDYFPKPYPNSEAARAANNGALPPDLSYIVRARHGGEDYVFSLLTGYCEPPTGVSLREGLYFNPYFPGQAIAMAPPIYTDVLEFDDGTPATMSQIAKDVCTFLRWASEPEHDHRKRMGLKMLMMMALLVPLVYTIKRHKWSVLKSRKLAYRPPK [CYC1]”, in data set [1], the “solubility in G1/S (log2)” value was found to be 0.869. The values for the melting temperature in data set [2] (cell cycle stage: G1/S) and in data set [2] (cell cycle stage: mitosis) were 54.5 °C and 53.5 °C, respectively. The “solubility change mitosis (log2)” value in data set [3] is -0.106. Also, the thermal stability score is -5.79 in data set [4] (setting [5]) and -6.58 in data set [4] (cell cycle stage: mitosis).
